In paper PMC4802922, “Conserved motif VIII of murine DNA methyltransferase Dnmt3a is essential for methylation activity”:

Legend:
Dnmt3a-CD R200E = Dnmt3a-CD R200E (Mus musculus, UniProt O88508 608-908, R786E); test: fluorescence polarization; Kd1; 0.1 mM AdoHcy; Fluorescence polarization: 10 nM duplex, 0.1 mM AdoHcy, Dnmt3a reaction buffer (composition not given), 25 °C; enzyme up to 600-800 nM; details: protein: recombinant; tags: His6; chain copies: 2; label: 5'-FAM on strand 1 (hexamethylene linker); blunt
Sequence of Dnmt3a-CD R200E (O88508 608-908 R786E): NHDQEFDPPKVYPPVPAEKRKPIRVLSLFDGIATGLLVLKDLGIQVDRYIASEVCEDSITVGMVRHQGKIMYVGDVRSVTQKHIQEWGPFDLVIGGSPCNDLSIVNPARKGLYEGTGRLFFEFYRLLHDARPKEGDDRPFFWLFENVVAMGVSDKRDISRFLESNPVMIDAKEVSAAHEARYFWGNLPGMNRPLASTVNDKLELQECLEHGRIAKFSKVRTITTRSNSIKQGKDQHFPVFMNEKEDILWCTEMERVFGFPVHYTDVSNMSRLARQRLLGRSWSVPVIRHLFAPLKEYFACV

Dnmt3a-CD R200A = Dnmt3a-CD R200A (Mus musculus, UniProt O88508 608-908, R786A); test: as above; details: protein: recombinant; tags: His6; chain copies: 2; label: 5'-FAM on strand 1 (hexamethylene linker); blunt
Sequence of Dnmt3a-CD R200A (O88508 608-908 R786A): as the sequence (O88508 608-908 R786E) above, with E179A counted along it

Dnmt3a-CD R200K = Dnmt3a-CD R200K (Mus musculus, UniProt O88508 608-908, R786K); test: as above; details: protein: recombinant; tags: His6; chain copies: 2; label: 5'-FAM on strand 1 (hexamethylene linker); blunt
Sequence of Dnmt3a-CD R200K (O88508 608-908 R786K): as the sequence (O88508 608-908 R786E) above, with E179K counted along it

Dnmt3a-CD wt = Dnmt3a-CD wt (Mus musculus, UniProt O88508 608-908); test: fluorescence polarization; Kd1 (first complex); 0.1 mM AdoHcy; Fluorescence polarization: 10 nM duplex, 0.1 mM AdoHcy, Dnmt3a reaction buffer (composition not given), 25 °C; enzyme up to 600-800 nM; details: protein: recombinant; tags: His6 (N-terminal in Methods, C-terminal in Results); chain copies: 2; label: 5'-FAM on strand 1 (hexamethylene linker); blunt
Sequence of Dnmt3a-CD wt (O88508 608-908): as the sequence (O88508 608-908 R786E) above, with E179R counted along it

B1: fGCGC/CGCG (dsDNA)
DNA 1: CTGAATACTACTTGCGCTCTCTAACCTGAT
DNA 2: ATCAGGTTAGAGAGCGCAAGTAGTATTCAG
Kd (Dnmt3a-CD R200E): 159 ± 37 nM
Kd (Dnmt3a-CD R200A): 79 ± 17 nM
Kd (Dnmt3a-CD R200K): 55 ± 14 nM
Kd (Dnmt3a-CD wt): 73 ± 17 nM
